Experiment: soluble on expression in E. coli; label from the status in PepcDB or PDB records

Sequence | soluble on expression in E. coli
MSLKSPPKKDEENVKINNMFKCGFYSFKGNRTYNEDRVIIIEDMNNFLKENIINNIKDMETPSYIYCAIYDGHNGDNAVNIVQKLLHIHMYYYFINGNGLENSLKYSFQEIDNYLCKNIINIKEENHSNYSSGTTACVSVIFKNMLYVANIGDSRCIISKNGRAIVLTVDHRASINKKEQDRILKSGGILDDEGYLGGCLGVCRGFGSFHKKTKEKLKGLICEPDLFHIKLTDDDEFLIICCDGIFDVITSQEAVNTVKNSLIQSRDAKTAAEALCQLAYKKKSLDNLSVLVVIFQNPDKEGHHHHHH | soluble
MSLKSSEQMRALFPDHPEACDNTLLLTEMIGSYDEVFKYVDRMPQFDVPEGETQESWLRKKLQEGLDEKFGPNPPKEVLERLETELSVIEPLGFASYFLVVSDICNAARSMGVPVGPGRGSAAGSLVAYLTGIIAINPLEHGLLFERFLNPERVNPPDIDLDFDDRQRDKVIDYVTHKYGAEYTSQVNTFGKIKAKAAVKDANRILGYPFALGDKITKAMPPDVMGKGVPLDKIFDSSHERYGEGQEFRQLVADNPDVAKVVETAKGLEGLIRGTGVHACAFILSSTPLLDLVPMHKRDKDGMIIAGFAYPQLEEMGLMKMDFLGLRNLGIMDHCIKIIKANRGIDVDLKNIALDDKTTYEMLARGDTLGVFQLDGTAMRSLLRLMGPTCFDDIVAVLALYRPGPMGANAHISYAQRKNNREPIIPIHPELKEDLDEILAPTYHLIVYQEQIMSIARKLAGYTLGGADLLRRAMGKEGHHHHHH | soluble
MSLKSWVKMNSWTSEDTKAVKMWFDLDKYREFENISINMLYHEIWARTYFFKPVIEEGMQKTVLKNYMQILDGDPFLIKEKHLNYMDSENKSYQPPYFFITTVDRIANISFACMRKALFIRANTEQYKIDSTIENEYISEIIPEQFPTTIMLEIDLAGGSDDEIAEALRVSLPQWRKVKGVKPAPLDAVRFGYGAIKKLISYRIIPMLDLLAWSERKKVLLSDDRLSRLLYTDEDDDKAIRQGYHIRDADRPFAMKTVETDFLRQFNFFINKNQHVKEMRVSDVMKLSDSEGHHHHHH | not soluble
MSLKTITTFENKKVLVLGLARSGEAAARLLAKLGAIVTVNDGKPFDENPTAQSLLEEGIKVVCGSHPLELLDEDFCYMIKNPGIPYNNPMVKKALEKQIPVLTEVELAYLVSESQLIGITGSNGKTTTTTMIAEVLNAGGQRGLLAGNIGFPASEVVQAANDKDTLVMELSSFQLMGVKEFRPHIAVITNLMPTHLDYHGSFEDYVAAKWNIQNQMSSSDFLVLNFNQGISKELAKTTKATIVPFSTTEKVDGAYVQDKQLFYKGENIMSVDDIGVPGSHNVENALATIAVAKLAGISNQVIRETLSNFGGVKHRLQSLGKVHGISFYNDSKSTNILATQKALSGFDNTKVILIAGGLDRGNEFDELIPDITGLKHMVVLGESASRVKRAAQKAGVTYSDALDVRDAVHKAYEVAQQGDVILLSPANASWDMYKNFEVRGDEFIDTFESLRGEGHHHHHH | soluble
MSLKTMSDTSEIIFSNYGIYDLGDNLELLLPNTLIKFQRISDNAFSYFRENSEGQIIEKIIPVKSNDIKIELAPIRPLNHPAKRTNYVFLKLDKEIHLGENSAASIFVHCPIEIGIFLIYGDNHEPLDWITCNPLNSRFSLYGSPDTGTLCKYAEVSLATDYNDSVSYVNGVMHIVIENTLSFAQTISKVIFPITDNNLYYKDSKSIVDGIKIIMKKRAAVNIAEIKPTLVDTEWTQAPAWDNSIDSVHHMEMTLEEGHHHHHH | soluble
MSLKVGERHYHTIWLNEDGRSVDIIDQRWLPHEFRVVTLKTVADVADAIRDMWVRGAPLIGVTAAYGVAIAMAKDPSDAHLDAVWEELNETRPTAINLRWALNAMREYLRPLPEAERADAAYKRAAEIAEEDVELNRAIGANGLDVIREIASKKKPGEPVRILTHCNAGWLATVDYGTATAPIYMAVEEGIPVHVYVDETRPRNQGAYLTAWEMNGHGVPHTLIVDNAGGHLMQHGDIDMVIVGTDRTTANGDVCNKIGTYLKALAARDNDVPFYVALPSPTIDWTVQDGVKEIPIEERTADEVSFVQGRAADGSIASVRISPEGSPAANPAFDVTPARLITGLITERGIATPSPEGLKALFPERSEGHHHHHH | soluble
MSLKVIWTVTPVGYQRIAKRCPSCSVKRDFTPSGAFRVNSQKKVLDVWSIYKCTHCDYTWNISLFSRLPVSKINRDLYCRLMANDAATVQYFAYDNAILKRNNAELSGQPDFHIQERWLVSIASHKQVSVSVRISRSFQVSLLSILKKQLLLSAAEIKRRIETGQISGVTMKMLKSRKLKNAKYDLQLSVETLYDRRRIVLTCREGHHHHHH | soluble
MSLKYAWIDEQCRHYPLSALCEVLAVSINGYRAWKRGGTVQRKRLTDAQLLTLIRTIHAEVKGAYGSPRMTEEIRARGFPASKARVERLMSKNGIRARHKRRYRVTTDSKHKLPVAPNLLNRDFTPDAPNQVFSSDITYIWTDEGWLYLAVVLDLFNREVVGWSIKPRMTADLVTDALMMAWFRRKPAPGALHHSDRGSQYASHEFQRKLADYGMHCSMSRKGNCWDNAPTESFFNSLKNERVHATHYRTHREAAADLFEYIEVFYSRSRRHSSLGFVPPTQFLQDWLTAQQVKDAVAEGHHHHHH | not soluble
MSLKYSSTTADYLQWSEAMNLIRKLARDSNYKMSLLIALGCFTGLRISDILALRWNQILDAEEFTIIEIKTGKQRTIRINMQLQQHIRDCYEHINPVGINAPVLISQKGTVYTVQRINVMLKEIKKKYKLQIGNFSCHSLRKTFGRQVYNMNSDNSELALVKLMELFNHSSVSITKRYLGLRQEELLNTYDCLSF | not soluble
MSLLFYRPLASIQALTFDLDDTLYDNRPVIKQVEEKVTEWLLSEHPITATRPLAWWLAMKRDIARRFPEQCHDVSQWRYLQVQHGLLELGYAQPEAEQAASETLEQVMRWRNQVDVPAETHRVLAQLAAKVPLIAITNGNVQIEKIGLSGYFQTVLRAGPDGRAKPYPDLFAQAAQQLQLEPRSILHVGDHLQTDVLGARQNGFQACWFNDQGQSIRRLAKASVLPDVEIERLSELLLIVNEGHHHHHH | soluble
MSLLGGPGIELFRRLVEEYEREHDVPMADIAAALAVQCRGGEAFLMAPDPPLSRRNRDQRRDRPQRPKRRPDLTTYRVAVGKRHKIGPGAIVGAIANEGGLHRSDFGQIRIGPDFSLVELPAKLPRATLKKLAQTRISGVLIDLRPYRPPDAARRHNGGKPRRKHVGEGHHHHHH | soluble
MSLLLEILDLSRSTYYYQVKRLAQGDKDIELKHVIREIYDEHKGNYGYRRIHMELRNRGFVVNHKKVQRLMKVMGLAARIRRKRKYSSYKGEVGKKADNLIKRHFEGSKPYEKCYTDVTEFALPEGKLYLSPVFDSYNCEIIDFTLSRSPNLKQAQTMLEKTFPADSYSGTILHSDQGWQYQHQSYHDFLESKGILPSMSRKGNSPDNGMMDSFFGILKSEMFYGLETTYQSLDKLEEAITDYIFYYNNKRIKAKLKGLSPVQYRTKSFQEGHHHHHH | not soluble
MSLLLFEQPVDLEKNNEDDTNIKPFAISRHFLLKLLLCGIILIELLLYSKCPKPIDNGPRTIANRSNTYFNGTHDFKTLTILISIDGFHPRLIDAKYTPFLYNLHNLRSPYDMNITTAPYMIPSFPTQTFPNHWSMVTGKYPIEHGIVSNIFWDNFTSSEFRPNNLDARIWSNTADPIWQLLQTESQGEYKVATHMWPGSEVVYEDHGDVPRERMPFYFGKFNQWEKLQDKLAQIFRYIDMPQLKDRPELVISYIPNVDSYGHSFGYDLRDKRLQKLIGEVDGFFLDLIEGLQKRNLLKISNVMIVSDHGMSNVNANDGEHVVVWERVFPADAMSAFISHLYNEGPMMMVCLKNPRDKQWICDLIEAQLEKAYGDEISRKFHVILKEDFDPSWKYFQYDNRKHRYDDRVGDIWILADEYYAIVKEMGDVPIGIMGTHGYNFNNCSDMASIFIGMGPMFNNEVVPPFENIEVYNMLIKASALLGEEKTKKEKSLLQEGHHHHHH | not soluble
MSLLLIGNGRLITRDAQNHFFENGCVAIDGQVVKQVGTTEELKQAYPEATFIDAKGGVIMPGFINMHNHIYSTFARGLSLTNYHPKNFMDILVDQWWRIDRALTLEDTYQSGKVAYLDSIRNGVTTVFDHHASYGEITGSLTQLSNAADELGIRTCLCYEVSDRDGEQKMREAVQENAAFIKASSLRNDDMQKAMMGMHAAFTLSDASLELCAANTPDGIGYHIHIAEDLADVHDSLKKYGKPIVNRLFDLGILGKQTMAGHCIHIGPHEMELLRDTDTMVVTNPESNMGNAVGCPPAMRMFNEYGILMGLGTDGYTNDVTESYKVGNVIHKHHLADPNAAWAEIPTMLFDNNPQMANRYFKTKLGVLEPNAAADVIIVDYHGPTPMTKENYNMHILFGMNGGMVTDTVINGEIRMRNREVQGIDEEKVWHDAQTQAQSFWKRVNQEGHHHHHH | soluble
MSLLNKMRCSVSAEVYGEWNKKKNFVAPVYEKDEGQKEQLERILRQSFLFNSLDEKDLNTVILAMQEKKIEASTCLIREGDDGECLYIVQSGELNCSKLIDGEERVVKVVGPGDAFGELALLYNAPRAATVTSVSACDLWELGRDTFNAIVKDAATKRRSMYDSFLKSVHILDGMDAYERGKVADALRTEMFTDGAYIVRQGELGDVFYIVEEGSAVATKSFGPGQPPIEVKKYQAGDYFGELALINEEPRAANVIAHGICKVACLERKSFKRLMGSVQDLLSKKASDLLTMAEEGHHHHHH | soluble
MSLLNTYEPWKFAFSQEETDFNNLKEGAWGIIGVPFDSTTSYHPGSRFGPIVVREASYGFEKYNTIFNTQLDNIFYDFGDVNVVFGNCKKTCDIIEDTVNELSDLKIKPLTIGGEHSLTIGVLNSLTKKYDDLTVVHLDAHRDLADTFIGELYSHASVMKRVHEMGVKELVQIGIRSASKEEEDFVKNQSNITTFKNNDVFHHLDNIEYYLSIIDTPIYLSIDMDVFDPSIAPTVGNPTPNGIAYGHIEAMLQTLSLKNVVGMDVVETAGDRLGDITAVSASKIIYDFLSLLEGHHHHHH | soluble
MSLLRKDATEERLTGRYFTPKDLASYIIDWVIQDNNINKILEPSCGNGVFLECLGERRLEDGRNITAIEIDEDVSFEASMQIDNSLRFNNCYDYQRALRNDGDIVNNGIVIINDDFYKVYEQELQGQRFQAIVGNPPYIRYQYLSEQQREEQSKILIRNNMRPNKLINAWVSFVVACAEILDGNGKMGLVIPAELLQVAYAEDLRRFIMRTFQRITIVTFRELVFPNVQQEVVLLLVEKEILHTREGHHHHHH | soluble
MSLLSGGLSLNDKSWQALVFDYTNDGMGWPIGALASAEQILLAMSAQLVDTDFELSLLLPEGEGEEALFELADAVAEWINHFISGLGLSGANLKHASVEAKEALEDLEEMSKLGIDEEDDLAEQAELLEQVIEHIKVCVLVLHAEFGVKPEQDTKPTVHEGGSHHHHHH | soluble
MSLLSYQHIYHAGNLADVQKHALLALALDYLTRKDKPLSYLETHAGRGLYHLDAAEAVRTGEAGAGIGRAEGAAWFDPAHPMTRVLAAVRTDHGAMAYPGSPLVAAHLLRPGDMMHLAELHPQEHAALEQAMAGYPARVYRRDGVEMAQSLLPPEPRRGMMLIDPSYEVKSDYDRIPAVIAQLHRKWNVGVIALWYPILTDERHKVMLAALERLDLPRVLRHEVRFAPAREGHRMVGSGMFVINAPFGLADEAARLSGLFAQLEGHHHHHH | soluble
MSLLTLLRPATVQDCKDIFKVHLHSVQYTCILSYNEHALKVWEGLLNTESYLPTISDPDKALWVAEYKGNIQGFFQIDCQEAQLDALYVHPLFHNLGLGTALLHQAETIAHKSGLSFLKLYASLNSVPFYLLNRYESLGSAVLQLDPSIKIKCELMRKHL | not soluble

Source: the DeepSol protein solubility set
